# Article PMC9449591, “Therapeutic application of PPE2 protein of Mycobacterium tuberculosis in inhibiting tissue inflammation”
# T1: rPPE2 (Mycobacterium tuberculosis, UniProt P9WI47 1-556)
# T1 sequence: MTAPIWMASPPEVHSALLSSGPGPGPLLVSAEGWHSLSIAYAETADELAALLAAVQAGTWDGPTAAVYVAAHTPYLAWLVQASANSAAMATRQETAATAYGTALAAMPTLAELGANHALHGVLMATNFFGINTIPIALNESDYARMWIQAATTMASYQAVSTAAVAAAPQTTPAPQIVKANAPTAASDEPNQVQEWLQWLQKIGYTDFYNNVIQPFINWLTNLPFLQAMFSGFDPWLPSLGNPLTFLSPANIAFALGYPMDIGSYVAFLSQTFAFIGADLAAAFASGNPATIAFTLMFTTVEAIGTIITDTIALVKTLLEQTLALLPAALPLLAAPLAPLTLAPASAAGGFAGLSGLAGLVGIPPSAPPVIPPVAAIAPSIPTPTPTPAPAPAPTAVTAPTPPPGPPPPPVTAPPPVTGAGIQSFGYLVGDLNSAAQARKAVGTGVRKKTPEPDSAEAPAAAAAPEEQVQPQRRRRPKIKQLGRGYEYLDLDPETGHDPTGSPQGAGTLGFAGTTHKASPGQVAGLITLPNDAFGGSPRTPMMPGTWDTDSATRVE
# B1: scf core promoter 60-bp EMSA oligonucleotide (dsDNA)
# DNA 1: CGCGTGCGGGCGGGAGGGAGCTGTATAAAAAGCGCTGGCGGCGCAGCAGCCGGGGCTTCATTTGCG
# DNA 2: CGCAAATGAAGCCCCGGCTGCTGCGCCGCCAGCGCTTTTTATACAGCTCCCTCCCGCCCGCACGCG
# Target: T1, rPPE2
# Test: EMSA; 20 mM HEPES, 0.5 mM DTT, 0.5 mM EDTA, 5% glycerol; […]; 30 min at room temperature; […]
# Conditions: protein: recombinant; tags: His (pRSET-A vector, TALON purified); label: 32P 5' end label (T4 PNK)
binder,measurement,value
B1,binding result,binds
